Assay results as given in the supplement of paper PMC9732359.
± gives the uncertainty stated by the source.

Experiment: protein stability index of a GFP-peptide fusion (yeast GPS) (PSI 1-4); higher = more stable; sorted into four equal gates, so the index is relative within each strain
In short: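 Tiled 17-residue yeast protein peptides were fused downstream of GFP in a plasmid that also expresses Cherry, and the pooled library was carried in yeast. Mid-log cultures in leucine-free medium were sorted into four equal gates by GFP/Cherry fluorescence ratio, and plasmids from each gate were PCR-amplified and Illumina-sequenced, with reads assigned to strains by barcodes. The protein stability index for each peptide was each gate's read frequency times its gate number, summed.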

Row | Sequence | protein stability index (doa10∆) | protein stability index (pdr5∆) | protein stability index (san1∆) | protein stability index (ubr1∆)
1 | IPMSKTIKDLVGGKSTV [FAS2] | 2.96 ± 0.11 | 2.8 ± 0.089 | 2.85 ± 0.072 | 3.04 ± 0.06
2 | IPSSKIDDFTTRLWGSV [SNU114] | 2.93 ± 0.16 | 3.05 ± 0.14 | 3 ± 0.12 | 3.21 ± 0.12
3 | IPSSYIKRTDEGGEAEF [ARP7] | 3.4 ± 0.16 | 3.14 ± 0.1 | 3.16 ± 0.11 | 3.45 ± 0.051
4 | IPTNPVDNENNKPAIKE [SWI3] | 2.95 ± 0.074 | 3.1 ± 0.083 | 2.89 ± 0.11 | 3.21 ± 0.068
5 | IPVKLLNEAQGHIVSLE [SMD3] | 3.14 ± 0.12 | 3.42 ± 0.16 | 2.77 ± 0.093 | 3.08 ± 0.11
6 | IQELEDQRDELLEQKKS [ITC1] | 3.21 ± 0.067 | 3.11 ± 0.055 | 3.24 ± 0.045 | 3.31 ± 0.061
7 | IQIMANIDQEGSKQADR [PGD1] | 3.2 ± 0.052 | 3.11 ± 0.064 | 3.08 ± 0.054 | 3.08 ± 0.04
8 | IQKEEEPENNTVIEGVK [SWI3] | 3.3 ± 0.073 | 3.06 ± 0.072 | 3.28 ± 0.048 | 3.25 ± 0.053
9 | IQNQSPQFNSPYDSNNS [SWI1] | 2.97 ± 0.057 | 3 ± 0.053 | 2.74 ± 0.052 | 2.82 ± 0.046
10 | IQRETLLPTNNGQPLNQ [GRR1] | 2.53 ± 0.072 | 2.91 ± 0.071 | 2.64 ± 0.06 | 2.65 ± 0.057
11 | IRCHREDCDLVIMALML [POP5] | 2.45 ± 0.053 | 2.65 ± 0.064 | 2.01 ± 0.091 | 2.81 ± 0.047
12 | IRDNKLVSEKIINSTAL [RPC82] | 3.24 ± 0.2 | 3.24 ± 0.12 | 2.99 ± 0.19 | 3.14 ± 0.11
13 | IRDSGDRIDLRYSKRAG [RPO21] | 3.43 ± 0.18 | 3.34 ± 0.23 | 3.25 ± 0.12 | 3.27 ± 0.19
14 | IREKVAKQALDLYHFAL [SNF2] | 2.52 ± 0.092 | 2.64 ± 0.098 | 2.62 ± 0.094 | 2.54 ± 0.056
15 | IRGNLMGKRVDFSARTV [RPO21] | – | 2.76 ± 0.24 | – | 2.5 ± 0.26
16 | IRINDEPILGQITLTFI [YML103C/NUP188] | 2.21 ± 0.067 | 2.64 ± 0.05 | 1.57 ± 0.073 | 2.25 ± 0.048
17 | IRQYALATAHIYLSRFL [SSN8] | 1.38 ± 0.034 | 1.34 ± 0.036 | 1.26 ± 0.12 | 1.11 ± 0.04
18 | IRRLRVLRRLLAKYRDA [RPL19A] | 1.19 ± 0.067 | 1.41 ± 0.058 | 1.34 ± 0.17 | 1.25 ± 0.057
19 | IRRTFNIVNDFTPEEEA [SKP1] | 2.71 ± 0.099 | 3.28 ± 0.05 | 3.16 ± 0.05 | 3.08 ± 0.041
20 | IRSVALNDSNVKSFKPH [RRP42] | 2.63 ± 0.083 | 3.23 ± 0.17 | 2.62 ± 0.23 | 2.98 ± 0.13
21 | ISAKDMGQGLCNNINKG [BRR2] | 3.13 ± 0.14 | 3.25 ± 0.22 | 3.12 ± 0.12 | 3.26 ± 0.24
22 | ISALTQTEIKDIILGQN [PRP8] | 2.1 ± 0.054 | 2.51 ± 0.061 | 1.92 ± 0.077 | 1.99 ± 0.052
23 | ISAPSMEDEILSLGMDF [BRN1] | 3.15 ± 0.057 | 3.23 ± 0.05 | 3.19 ± 0.05 | 3.12 ± 0.044
24 | ISEINFLHESSFDSIDH [CSI1] | 2.54 ± 0.05 | 2.95 ± 0.06 | 2.51 ± 0.069 | 2.84 ± 0.041
25 | ISEKDLVPKRCLFESLS [RPO31] | 2.59 ± 0.12 | 3.38 ± 0.15 | 2.94 ± 0.16 | 3.03 ± 0.095
26 | ISEVMEDRNQRIKEMYW [FAS1] | 3.07 ± 0.16 | 3.3 ± 0.17 | 2.99 ± 0.12 | 2.97 ± 0.12
27 | ISGYKKFSSTSRYMQYN [RPT1] | 1.26 ± 0.18 | 1.59 ± 0.15 | 1.56 ± 0.2 | 1.7 ± 0.11

Row | Sequence | protein stability index (doa10∆) | protein stability index (pdr5∆) | protein stability index (san1∆) | protein stability index (ubr1∆)
28 | ISIPKTCDEIQNFENDF [REC8] | 2.8 ± 0.077 | 2.92 ± 0.068 | 2.61 ± 0.056 | 2.85 ± 0.046
29 | ISIYNMLPPKSVKFTHI [SSN2] | 1.64 ± 0.069 | 1.76 ± 0.057 | 2.13 ± 0.066 | 2.29 ± 0.034
30 | ISKHSKQAIYTRAAASE [RPS25B] | 2.74 ± 0.055 | 2.73 ± 0.048 | 2.6 ± 0.047 | 2.86 ± 0.041
31 | ISKLFLRGDSVIVVLKT [SMD2] | 2.87 ± 0.16 | 2.89 ± 0.2 | – | –
32 | ISLAVEGEPVNSPNYFV [COR1] | 3.09 ± 0.14 | 2.43 ± 0.094 | 2.83 ± 0.12 | 1.99 ± 0.065
33 | ISLSVHTLALEFVNGGK [RRP46] | 2.49 ± 0.1 | 2.79 ± 0.068 | 2.06 ± 0.08 | 2.66 ± 0.079
34 | ISMILRNISFSDNNSRI [SWI1] | 3.02 ± 0.06 | 2.86 ± 0.059 | 2.77 ± 0.058 | 3.08 ± 0.04
35 | ISNKDVIFKIRDRTSGQ [SRB4] | 3.42 ± 0.11 | 3.02 ± 0.13 | 3.42 ± 0.077 | 3.14 ± 0.11
36 | ISNVIKPNQTIMVLDAS [SRP54] | 2.48 ± 0.062 | 2.56 ± 0.053 | 2.83 ± 0.06 | 2.67 ± 0.059
37 | ISPDPNLSIDEVAVPDR [RPO31] | 2.87 ± 0.089 | 2.76 ± 0.084 | 3.23 ± 0.069 | 2.95 ± 0.049
38 | ISPSAPSKDSFTKYKPA [YAR002W/NUP60] | 2.65 ± 0.079 | 2.9 ± 0.069 | 2.69 ± 0.094 | 2.98 ± 0.042
39 | ISSLMFDEEFDPFKTSS [IRR1] | – | – | 2.7 ± 0.14 | 2.99 ± 0.26
40 | ISTACPRLDDVVVDTVE [SMC4] | 3.51 ± 0.071 | 3.43 ± 0.094 | 3.3 ± 0.058 | 3.46 ± 0.093
41 | ISTAKAWGALITTFVKR [YML103C/NUP188] | 1.82 ± 0.051 | 2.22 ± 0.051 | 1.64 ± 0.063 | 1.66 ± 0.058
42 | ISTSFCFICLLHLANEH [BRN1] | 1.67 ± 0.12 | 1.21 ± 0.13 | – | 1.35 ± 0.13
43 | ISVARKIYDAFPQTAML [DIS3] | 2.41 ± 0.098 | 2.4 ± 0.072 | 2.61 ± 0.14 | 2.36 ± 0.089
44 | ITARSAFVEFGASVIAG [SWP82] | 1.93 ± 0.11 | 2.53 ± 0.085 | 1.86 ± 0.11 | 2.21 ± 0.054
45 | ITASTLLYADSLTAEAM [CYT1] | 2.1 ± 0.064 | 2.31 ± 0.059 | 2.51 ± 0.095 | 2.18 ± 0.039
46 | ITHAHSLSNPNSTATMQ [PGD1] | 2.8 ± 0.055 | 2.44 ± 0.054 | 2.5 ± 0.063 | 2.86 ± 0.043
47 | ITHRDLHYDKDYNLRIY [SSN8] | 2.21 ± 0.051 | 2.1 ± 0.041 | 2.46 ± 0.043 | 2.18 ± 0.04
48 | ITHTENYNDLIVNYEDL [BRN1] | 3.17 ± 0.09 | 2.94 ± 0.12 | 2.56 ± 0.14 | 3.2 ± 0.072
49 | ITIFSPEGRLYQVEYAF [SCL1] | 2.58 ± 0.15 | 2.6 ± 0.11 | 2.1 ± 0.092 | 2.37 ± 0.068
50 | ITKVTENLFSKEEVCQG [YMR129W/POM152] | 2.95 ± 0.085 | 2.77 ± 0.092 | 2.97 ± 0.074 | 3.06 ± 0.082
51 | ITLALADAGIELVDMAG [MTR3] | 1.89 ± 0.072 | 2.43 ± 0.065 | 2.2 ± 0.1 | 2.12 ± 0.075
52 | ITLRGVENIERVVMMKY [RPO21] | 2.22 ± 0.12 | 2.28 ± 0.096 | 1.23 ± 0.16 | 2.19 ± 0.076
53 | ITSFLLSKMENVNLDDY [NAS6] | 1.95 ± 0.11 | 1.54 ± 0.052 | 1.87 ± 0.12 | 1.85 ± 0.057
54 | ITSIMDDLALPYQHPPN [ITC1] | 3.17 ± 0.084 | 3.34 ± 0.076 | 3.08 ± 0.078 | 3.22 ± 0.048
